# Data from the supplement of paper PMC10567573.
# B1: MGC16075 (parent)
# chain: AGSRQALSFEVPPCNYDPEKWIQ
# B2: FAM50A (parent)
# chain: KKREKQREQMEQMKQRIAEENIMK
# Variants of: B1
# Assay: protein stability index of a GFP-peptide fusion (GPS, HEK-293T) (PSI 1-6); higher = more stable
# Details: c terminus: native
# 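Note: lentivirally expressed fusions sorted by FACS into six bins by GFP to DsRed ratio, PSI derived from sequencing read proportions per bin multiplied by bin number.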
row,Variant,protein stability index
1,A1R,2.04
2,A1H,1.82
3,A1P,2.5
4,A1N,2.23
5,A1C,1.19
6,V11I,2.6
7,V11P,1.75
8,V11C,2.02
9,V11G,1.63
10,S8Y,3.25
11,S8E,3.24
12,S8P,1.91
13,P12F,2.92
14,P12V,2.72
15,P12L,4.23
16,P12K,1.73
17,Y16F,1.68
18,Y16T,2.53
19,Y16V,2.47
20,Y16Q,2.54
21,Y16I,2.01
22,Y16R,1.24
23,F9A,2.63
24,F9W,2.5
25,F9C,2.57

row,Variant,protein stability index
1,F9G,3.14
2,W21A,2.33
3,W21V,2.88
4,R4N,1.98
5,R4S,2.21
6,R4V,2.61
7,N15R,2.62
8,N15F,1.96
9,N15M,1.84
10,N15W,2.14
11,N15D,1.78
12,N15Y,2.7
13,G2W,1.68
14,G2D,1.93
15,G2Y,2.51
16,S3H,2.44
17,S3M,1.92
18,S3P,2.18
19,S3F,4.6
20,S3N,1.59
21,S3T,1.79
22,S3K,2.32
23,K20R,1.98
24,E19D,2.54
25,E19C,1.76

row,Variant,protein stability index
1,E19S,2.2
2,E19A,1.22
3,E19G,2.16
4,E19H,2.64
5,D17M,1.9
6,D17N,1.51
7,D17H,2.12
8,D17S,1.49
9,D17F,1.57
10,D17A,2.18
11,I22Q,4.78
12,I22T,4.85
13,P13K,2.34
14,P13N,1.27
15,P13R,1.29
16,L7I,2.07
17,L7R,2.5
18,L7Y,1.76
19,L7T,2.42
20,L7S,2.11
21,L7M,1.86
22,L7F,3.58
23,P18K,1.79
24,P18F,1.6
25,P18C,2.3

row,Variant,protein stability index
1,P18L,2.72
2,P18M,1.91
3,E10Q,1.23
4,E10V,1.08
5,E10K,1.67
6,C14L,1.39
7,C14H,2.1
8,C14W,1.56
9,C14E,2.21
10,C14I,1.59
11,C14R,1.92
12,Q23K,1.91
13,Q5P,1.47
14,Q5W,4.32
15,Q5A,1.8
16,Q5N,1.82
17,A6S,1.6
18,A6H,1.71
19,A6N,2.16
20,A6R,2.29
21,A6F,2.46
22,A6P,1.56

# Variants of: B2
# Assay: as above
# Details: c terminus: a fixed tail appended
row,Variant,protein stability index
1,M23I,4.04
2,M23K,4.99
3,M23V,5.27
4,M23F,4.32
5,M23Q,5.45
6,M23P,5.46
7,M23W,4.02
8,M23G,5
9,M23Y,4.75
10,M23S,5.28
11,M23D,5.14
12,M23C,4.83
13,M23L,4.49
14,M23A,4.63
15,M23T,4.93
16,M23E,5.25
17,M23R,3.3
18,M23N,4.66
19,M23H,4.89
20,E20N,4.44
21,E20A,4.47
22,E20C,4.53
23,E20I,4
24,E20D,4.85

row,Variant,protein stability index
1,E20S,3.37
2,E20M,3.79
3,E20Q,4.17
4,E20R,4.48
5,E20G,4.34
6,E20F,3.79
7,E20T,4.85
8,E20Y,3.62
9,E20K,3.96
10,E20L,3.84
11,E20P,4.8
12,E20H,4.39
13,E20W,3.47
14,E20V,3.74
15,N21W,3.91
16,N21K,5.35
17,N21Y,4.41
18,N21C,4.63
19,N21A,4.73
20,N21H,4.46
21,N21L,3.99
22,N21S,4.75
23,N21R,4.35
24,N21P,4.85

row,Variant,protein stability index
1,N21M,4.64
2,N21I,4.17
3,N21E,5.12
4,N21V,4.03
5,N21T,4.77
6,N21F,4.31
7,N21D,5.11
8,N21G,4.75
9,N21Q,5.48
10,K24H,4.97
11,K24A,4.33
12,K24L,4.13
13,K24N,4.77
14,K24F,4.39
15,K24R,4.16
16,K24G,4.99
17,K24I,4.35
18,K24S,4.88
19,K24C,5.14
20,K24P,4.46
21,K24Q,4.86
22,K24Y,4.24
23,K24D,5.12
24,K24T,4.95

row,Variant,protein stability index
1,K24M,5.03
2,K24W,3.77
3,K24E,4.85
4,K24V,4.82
5,I17P,5.52
6,I17T,5.3
7,I17M,4.87
8,I17K,4.25
9,I17L,4.92
10,I17W,4.25
11,I17E,5.1
12,I17N,5.2
13,I17H,5.02
14,I17C,4.37
15,I17Q,5.44
16,I17A,5.39
17,I17V,4.87
18,I17Y,4.46
19,I17S,5.3
20,I17F,5.12
21,I17D,5.3
22,I17G,5.41
23,I17R,4.77
24,K14N,4.86

row,Variant,protein stability index
1,K14E,5.01
2,K14S,5.06
3,K14H,5.01
4,K14A,5.21
5,K14Q,5.15
6,K14T,4.3
7,K14D,5.02
8,K14C,4.57
9,K14Y,4.39
10,K14R,4.59
11,K14I,4.05
12,K14P,5.67
13,K14M,4.53
14,K14G,5.02
15,K14V,4.63
16,K14W,3.9
17,K14F,4.32
18,K14L,4.11
19,Q12N,5.04
20,Q12P,4.9
21,Q12W,4.45
22,Q12M,4.27
23,Q12T,4.7
24,Q12R,4.39

row,Variant,protein stability index
1,Q12S,4.84
2,Q12V,5.07
3,Q12Y,4.55
4,R16Y,5.15
5,R16H,5.09
6,R16I,4.71
7,R16S,5.52
8,R16C,4.81
9,R16N,4.67
10,R16E,5.53
11,R16A,5.42
12,R16L,4.51
13,R16V,5.02
14,R16Q,4.97
15,R16P,5.19
16,R16D,5.56
17,R16G,5.32
18,R16F,4.52
19,R16T,5.01
20,R16M,4.89
21,R16W,3.94
22,R16K,4.83
23,M13C,5.03
24,M13P,4.99

row,Variant,protein stability index
1,M13T,5.31
2,M13S,5.31
3,M13G,5.27
4,M13F,4.67
5,M13N,5.21
6,M13W,2.63
7,M13D,5.13
8,M13I,4.29
9,M13V,4.82
10,M13E,5.5
11,M13A,4.95
12,M13L,5.37
13,M13R,5.08
14,M13H,4.65
15,M13Y,3.98
16,M13Q,5.26
17,M13K,4.77
18,A18F,4.84
19,A18I,4.36
20,A18M,4.12
21,A18N,4.93
22,A18V,4.69
23,A18K,3.97
24,A18H,4.19

row,Variant,protein stability index
1,A18Q,5.31
2,A18S,4.78
3,A18R,4.39
4,A18E,4.62
5,A18G,4.64
6,A18L,4.72
7,A18C,4.35
8,A18T,4.59
9,A18D,5.35
10,A18Y,4.43
11,A18P,4.79
12,A18W,4.09
13,Q15T,4.85
14,Q15L,4.7
15,Q15R,4.73
16,Q15S,4.9
17,Q15W,4.29
18,Q15F,4.44
19,Q15D,5.02
20,Q15N,4.8
21,Q15K,4.4
22,Q15M,4.5
23,Q15E,5.51
24,Q15G,4.68

row,Variant,protein stability index
1,Q15H,4.84
2,Q15A,4.67
3,Q15I,4.51
4,Q15C,4.19
5,Q15P,4.9
6,Q15Y,4.14
7,Q15V,4.36
8,I22H,4.8
9,I22N,5.12
10,I22R,4.92
11,I22D,5.54
12,I22T,5.46
13,I22L,4.91
14,I22C,5.22
15,I22V,4.85
16,I22E,5.68
17,I22K,4.16
18,I22F,3.93
19,I22P,5.12
20,I22G,5.2
21,I22S,5.33
22,I22A,4.48
23,I22Y,4.18
24,I22Q,4.75

row,Variant,protein stability index
1,I22M,5.07
2,I22W,4.63
3,E19G,4.78
4,E19S,4.33
5,E19R,4.98
6,E19T,4.78
7,E19A,4.63
8,E19N,4.34
9,E19L,3.22
10,E19F,3.71
11,E19W,3.66
12,E19Q,4.72
13,E19H,4.6
14,E19Y,4.38
15,E19C,3.9
16,E19D,4.33
17,E19M,4.09
18,E19P,4.19
19,E19I,2.92
20,E19K,5.08
21,E19V,3.47
